In paper PMC5508132 one finds area of fibroblasts on RGDS surfaces after 24 h, relative to the unmodified substrate data, which are given here for one molecule.

The target in this assay is integrin (of mouse fibroblasts, members not named for this experiment). The following applies: scale: fold relative to the unmodified substrate.

Non-standard residues stand in square brackets, D forms with d. Groups on a side chain read outwards from the residue. No end group written: not given here. Phe(4-N3) = [N-]=[N+]=Nc1ccc(C[C@H](N)C(=O)O)cc1; ssDNA = not defined here

For [Phe(4-N3)]([DIBAC-ssDNA])GGRGDS-NH2 (reading uncertain; also: printed as F^az^GGRGDS) [RGDS P-DNA (F^azGGRGDS peptide conjugated to ssDNA)], the area of fibroblasts on RGDS surfaces after 24 h, relative to the unmodified substrate is 6.
